In patent publication US9187525B2, “Methods of treating ophthalmic diseases using NPR-B agonists” (Shire Orphan Therapies GmbH, dated 2015):
Numbered stars: 1 amine (or outer) side, 2 acyl side, 3 side chain; on linkers, the order of the positions; unused ones are H or OH. Square brackets hold non-standard residues; d marks the D form. Primed or numbered codes have the meaning given here. Ends that are not written are not given here. * marks the point of attachment. abu(pip) = (R)-2-amino-4-(piperidin-1-yl)butanoic acid, O=C([C@@H](CCN1CCCCC1)N[*:1])[*:2]; Pro(trans-4-NH2) = O=C([C@@H]1C[C@@H](N[*:3])CN1[*:1])[*:2]; Sni = (S)-nipecotic acid, O=C([C@H]1CCCN([*:1])C1)[*:2]; Bmf = rac-2-amino-3-phenyl-butyric acid; Fhy = Amino-piperidin-3-yl-acetic acid; Gly(cPent) = N[C@H](C(=O)O)C1CCCC1; Hyp = O=C(O)[C@@H]1C[C@@H](O)CN1; AR‑314‑145 = not defined here; AR‑314‑169 = not defined here; AR‑314‑170 = not defined here; AR‑314‑171 = not defined here; AR‑314‑172 = not defined here; AR‑385‑008 = not defined here; AR‑385‑017 = not defined here; AR‑385‑042 = not defined here; NMeL = CN[C@@H](CC(C)C)C(=O)O; AR‑385‑12 = not defined here; Phg = N[C@H](C(=O)O)c1ccccc1; orn(Me2) = not defined here; Octanoyl = CCCCCCCC(=O)*; Sni″ = not defined here; Az3 = not defined here; Che = not defined here; Fbz = not defined here; Oct = not defined here; aze = not defined here; hse = not defined here; leu = not defined here; mpa = not defined here; opa = not defined here; ppa = not defined here; Occ = octanoic acid

T1: natriuretic peptide receptor-B (human)
T1 chain: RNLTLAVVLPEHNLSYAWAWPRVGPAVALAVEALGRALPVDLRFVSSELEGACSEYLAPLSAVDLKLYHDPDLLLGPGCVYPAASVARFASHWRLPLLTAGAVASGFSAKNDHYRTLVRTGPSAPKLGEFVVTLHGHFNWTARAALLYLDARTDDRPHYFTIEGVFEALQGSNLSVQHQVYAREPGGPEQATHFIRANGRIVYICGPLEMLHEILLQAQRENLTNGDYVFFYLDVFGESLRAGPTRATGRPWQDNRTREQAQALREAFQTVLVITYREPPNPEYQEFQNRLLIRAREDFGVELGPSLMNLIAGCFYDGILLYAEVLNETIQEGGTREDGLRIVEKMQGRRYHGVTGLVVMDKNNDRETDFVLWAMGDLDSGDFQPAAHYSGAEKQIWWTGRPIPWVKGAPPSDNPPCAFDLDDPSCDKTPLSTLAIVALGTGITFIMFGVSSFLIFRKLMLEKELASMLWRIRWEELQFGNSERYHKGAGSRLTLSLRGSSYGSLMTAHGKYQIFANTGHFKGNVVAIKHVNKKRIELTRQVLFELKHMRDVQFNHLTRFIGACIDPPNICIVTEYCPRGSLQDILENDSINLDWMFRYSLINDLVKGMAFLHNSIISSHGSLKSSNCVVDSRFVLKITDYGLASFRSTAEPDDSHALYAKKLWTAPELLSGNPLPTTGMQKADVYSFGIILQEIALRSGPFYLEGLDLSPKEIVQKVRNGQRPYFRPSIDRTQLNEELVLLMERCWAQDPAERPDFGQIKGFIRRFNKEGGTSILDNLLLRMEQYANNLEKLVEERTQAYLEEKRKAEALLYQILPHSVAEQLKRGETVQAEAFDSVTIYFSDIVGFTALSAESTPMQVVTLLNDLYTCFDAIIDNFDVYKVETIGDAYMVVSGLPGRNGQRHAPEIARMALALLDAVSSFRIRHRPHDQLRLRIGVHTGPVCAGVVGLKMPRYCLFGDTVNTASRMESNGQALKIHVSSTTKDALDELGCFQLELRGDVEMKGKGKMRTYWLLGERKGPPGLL


Biological target: T1, natriuretic peptide receptor-B
Assay: cell-based or functional assay

Row | Binder | EC50 group, cGMP in GTM-3 cells
1 | [Occ][Az3]FGLKLDRI-NH2 (reading uncertain; also: printed as Occ-Az3-Phe-Gly-Leu-Lys-Leu-Asp-Arg-Ile-NH2) [JAL-0742] | ≤ 15 µM
2 | [Occ][Sni]F[leu]L[Hyp][NMeL][AR‑314‑145]RI-NH2 (reading uncertain; also: printed as Occ-Sni-Phe-leu-Leu-Hyp-Nml-(AR-314-145)-Arg-Ile-NH2) [JAL-1864] | ≤ 15 µM
3 | [Oct][Sni]F[orn(Me2)]L[Hyp][NMeL]VP[Che] (reading uncertain; also: printed as Oct-Sni-Phe-orn(Me2)-Leu-Hyp-Nml-Val-Pro-Che) [JAL-1847] | ≤ 15 µM
4 | [Occ][Sni″]FGLKLDRI-NH2 (reading uncertain; also: printed as Occ-Sni-Phe-Gly-Leu-Lys-Leu-Asp-Arg-Ile-NH2) [JAL-0743] | ≤ 5 µM
5 | [Occ][Sni]F[leu]L[Hyp][NMeL][Phg]RI-NH2 (reading uncertain; also: printed as Occ-Sni-Phe-leu-Leu-Hyp-Nml-Phg-Arg-Ile-NH2) [JAL-1858] | ≤ 15 µM
6 | [Oct][Sni]F[leu]L[Hyp][NMeL]VR[Che] (reading uncertain; also: printed as Oct-Sni-Phe-leu-Leu-Hyp-Nml-Val-Arg-Che) [JAL-1848] | ≤ 5 µM
7 | [Oct][Sni]F[orn(Me2)]L[Hyp][NMeL]VR[Che] (reading uncertain; also: printed as Oct-Sni-Phe-orn(Me2)-Leu-Hyp-Nml-Val-Arg-Che) [JAL-1851] | ≤ 5 µM
8 | [Occ][Sni]F[leu]L[Hyp][NMeL][Gly(cPent)]RI-NH2 (reading uncertain; also: printed as Occ-Sni-Phe-leu-Leu-Hyp-Nml-Cpg-Arg-Ile-NH2) [JAL-1859] | ≤ 5 µM
9 | [Oct][Sni]F[leu]L[Pro(trans-4-NH2)][NMeL]VR[Che] (reading uncertain; also: printed as Oct-Sni-Phe-leu-Leu-Tap-Nml-Val-Arg-Che) [JAL-1849] | ≤ 5 µM
10 | [Occ][Sni]F[orn(Me2)]L[Pro(trans-4-NH2)][NMeL]VR[Che] (reading uncertain; also: printed as Occ-Sni-Phe-orn(Me2)-Leu-Tap-Nml-Val-Arg-Che) [JAL-1850] | ≤ 1 µM
11 | Octanoyl-[aze]FGLKLDRI-NH2 (reading uncertain; also: printed as Occ-aze-Phe-Gly-Leu-Lys-Leu-Asp-Arg-Ile-NH2) [JAL-0740] | ≤ 15 µM
12 | [AR‑314‑169]F[leu]L[Hyp][NMeL]DRI-NH2 (reading uncertain; also: printed as (AR-314-169)-Phe-leu-Leu-Hyp-Nml-Asp-Arg-Ile-NH2) [JAL-1868-2] | ≤ 5 µM
13 | [Occ][Sni]F[leu]L[Hyp][NMeL][Bmf]RI-NH2 (reading uncertain; also: printed as Occ-Sni-Phe-leu-Leu-Hyp-Nml-Bmf-Arg-Ile-NH2) [JAL-1857] | ≤ 15 µM

More lines, now with the values ahead:

Row | EC50 group, cGMP in GTM-3 cells | Binder
14 | ≤ 1 µM | [Occ][Sni]F[AR‑385‑12]L[Hyp][NMeL]DRI-NH2 (reading uncertain; also: printed as Occ-Sni-Phe-(AR-385-12)-Leu-Hyp-Nml-Asp-Arg-Ile-NH2) [JAL-1877]
15 | ≤ 5 µM | [AR‑385‑042][leu]L[Hyp][NMeL]DRI-NH2 (reading uncertain; also: printed as (AR-385-042)-leu-Leu-Hyp-Nml-Asp-Arg-Ile-NH2) [JAL-1880]
16 | ≤ 5 µM | [Occ][Sni]F[metO2]L[Hyp][NMeL]DRI-NH2 [JAL-1885]
17 | ≤ 5 µM | Octanoyl-[Sni]FHL[Hyp][NMeL]DRI-NH2 (not fully specified (some residues); printed as Occ-Sni-Phe-his-Leu-Hyp-Nml-Asp-Arg-Ile-NH2) [JAL-1884]
18 | ≤ 5 µM | [Occ][Sni]F[opa]L[Hyp][NMeL]DRI-NH2 (reading uncertain; also: printed as Occ-Sni-Phe-opa-Leu-Hyp-Nml-Asp-Arg-Ile-NH2) [JAL-1887]
19 | ≤ 5 µM | [AR‑314‑172][leu]L[Hyp][NMeL]DRI-NH2 (reading uncertain; also: printed as (AR-314-172)-leu-Leu-Hyp-Nml-Asp-Arg-Ile-NH2) [JAL-1874]
20 | ≤ 5 µM | [Occ][Sni]F[abu(pip)]L[Hyp][NMeL]DRI-NH2 [JAL-1879]
21 | ≤ 5 µM | [Occ][Sni]F[ppa]L[Hyp][NMeL]DRI-NH2 (reading uncertain; also: printed as Occ-Sni-Phe-ppa-Leu-Hyp-Nml-Asp-Arg-Ile-NH2) [JAL-1889]
22 | ≤ 15 µM | [AR‑314‑171]F[leu]L[Hyp][NMeL]DRI-NH2 (reading uncertain; also: printed as (AR-314-171)-Phe-leu-Leu-Hyp-Nml-Asp-Arg-Ile-NH2) [JAL-1870-2]
23 | ≤ 15 µM | Octanoyl-[Sni]FTL[Hyp][NMeL]DRI-NH2 (not fully specified (some residues); printed as Occ-Sni-Phe-thr-Leu-Hyp-Nml-Asp-Arg-Ile-NH2) [JAL-1883]
24 | ≤ 5 µM | [Occ][Sni]F[mpa]L[Hyp][NMeL]DRI-NH2 (reading uncertain; also: printed as Occ-Sni-Phe-mpa-Leu-Hyp-Nml-Asp-Arg-Ile-NH2) [JAL-1888]
25 | ≤ 15 µM | [AR‑385‑008][leu]L[Hyp][NMeL]DRI-NH2 (reading uncertain; also: printed as (AR-385-008)-leu-Leu-Hyp-Nml-Asp-Arg-Ile-NH2) [JAL-1873]
26 | ≤ 5 µM | [Occ][Sni]F[hse]L[Hyp][NMeL]DRI-NH2 (reading uncertain; also: printed as Occ-Sni-Phe-hse-Leu-Hyp-Nml-Asp-Arg-Ile-NH2) [JAL-1878]
27 | ≤ 5 µM | [Occ][Sni]F[Fbz]L[Hyp][NMeL]DRI-NH2 (reading uncertain; also: printed as Occ-Sni-Phe-Fbz-Leu-Hyp-Nml-Asp-Arg-Ile-NH2) [JAL-1881]
28 | ≤ 15 µM | [AR‑314‑170]F[leu]L[Hyp][NMeL]DRI-NH2 (reading uncertain; also: printed as (AR-314-170)-Phe-leu-Leu-Hyp-Nml-Asp-Arg-Ile-NH2) [JAL-1869-2]
29 | ≤ 5 µM | [Occ][Sni]F[AR‑385‑017]L[Hyp][NMeL]DRI-NH2 (reading uncertain; also: printed as Occ-Sni-Phe-(AR-385-017)-Leu-Hyp-Nml-Asp-Arg-Ile-NH2) [JAL-1886]
30 | ≤ 5 µM | [Occ][Sni]F[Fhy]L[Hyp][NMeL]DRI-NH2 [JAL-1882]
